Data published in patent US20190160181A1 (MERSANA THERAPEUTICS, published 2019).
“And” between values parts separate entries of the source, which are not always exact repeats. Identical values can stand only once.

Experiments:
human NaPi2b = biological target: T1, human NaPi2b (human, UniProt O95436 1-690); assay: immunohistochemistry, human lung tumor tissue microarray
T1 construct: whole, on cells; read as O95436; Detected by immunohistochemistry in tissue sections; also called SLC34A2; NaPiIIb
T1 sequence (looked up): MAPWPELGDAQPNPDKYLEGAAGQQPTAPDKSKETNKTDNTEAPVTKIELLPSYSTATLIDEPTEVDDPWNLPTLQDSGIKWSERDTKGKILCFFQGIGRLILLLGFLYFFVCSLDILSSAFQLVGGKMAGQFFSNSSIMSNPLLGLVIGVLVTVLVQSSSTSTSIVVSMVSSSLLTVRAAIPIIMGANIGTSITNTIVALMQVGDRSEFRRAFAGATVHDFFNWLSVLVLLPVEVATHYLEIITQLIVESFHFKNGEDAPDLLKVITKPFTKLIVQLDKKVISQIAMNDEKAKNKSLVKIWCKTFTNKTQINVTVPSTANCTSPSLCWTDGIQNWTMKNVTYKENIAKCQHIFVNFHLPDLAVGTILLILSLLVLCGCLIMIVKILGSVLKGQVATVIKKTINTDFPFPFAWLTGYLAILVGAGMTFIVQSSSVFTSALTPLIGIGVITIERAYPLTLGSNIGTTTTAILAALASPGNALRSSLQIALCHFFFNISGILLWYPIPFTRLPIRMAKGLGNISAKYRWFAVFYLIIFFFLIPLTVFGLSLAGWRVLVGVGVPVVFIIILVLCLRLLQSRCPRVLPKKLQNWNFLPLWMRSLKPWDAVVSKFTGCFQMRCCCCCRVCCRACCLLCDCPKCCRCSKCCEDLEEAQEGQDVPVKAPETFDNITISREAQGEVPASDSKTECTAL
Method: An immunohistochemical assay for MERS67 was established on a Leica BondRx Instrument. The assay was performed on tissue microarrays (TMA), including NSCLC and small cell lung cancer (SCLC) cell line arrays, and a NSCLC human tumor array. Tumors in the NSCLC array had previously been classified based on morphologic features only. All arrays were scored based on the H-score method.
To characterize the primary tumors further, the tumor TMA was stained with TTF-1 and p40, markers of ACA and squamous cell carcinoma (SCC), respectively. Results of this staining were compared to MERS67 staining patterns. H-Scores in the NSCLC cell line TMA ranged from 0-260, and from 0-100 in the small cell lung carcinoma (SCLC) TMA. Within the tissue microarray, 99 individual cases were evaluable. By morphologic classification 63 cases were SCC, and 23 cases were ACA. Using an arbitrary cut point of H=50, there was a statistically significant difference in the number of NaPi2b positive ACA cases (19/23) vs SCC (3/63). FIG. 13 is a box plot of the H scores derived from MERS67 IHC comparing SCC vs ACA, when these tumors were classified by morphology only.

[1] = biological target: T2, Human cyclized NaPi2b peptide (human); assay: ELISA on plate-coated human cyclized NaPi2b peptide, one site-specific binding fit
T2 construct: also called Human NaPi2b peptide
Method: Human cyclized NaPi2b peptide were generated and lyophilized covering the amino acids identified in the XMT-1535 epitope (New England Peptide, Gardner, Mass.). For the ELISA, the lyophilized NaPi2b peptide was reconstituted in DMSO. Human NaPi2b peptide was used to coat 96-Well high binding clear ELISA plates (Corning, 3369) at 1 μg/mL in sodium carbonate buffer, pH 9 to a total volume of 100 μl per well. After a 2-hour incubation, plates were washed 4 times with 100 μl per well TBS-Tween 20, blocked with 3% BSA in TBS-Tween 20 (100 μl per well) for 1 hour, and washed again. Test articles, MERS67 (Lot U0859BH and Lot U5569BL), XMT-1535, and the non-binding control (trastuzumab) were added to the wells at a dose concentration range from 100 nM to 0.002 nM using an […] 3-fold serial dilution in TBS-Tween 20 buffer at 100 μl per well. Plates were incubated for 1 hour with rocking then washed as above. […] The Optical Density (O.D.) was measured at 450 nm with a SpectraMax M5 microplate reader (Molecular Devices, Sunnyvale, Calif.). The O.D. for each treatment was graphed, and Kd calculated for each antibody with GraphPad Prism software (GraphPad Software Inc., La Jolla, Calif.) by non-linear regression using the one site-specific binding model.

binding result (human NaPi2b): binds
Kd [1]: 0.256 nM and 0.104 nM
B1: MERS67 (antibody, rabbit IgG1, V domains shown)
VH: QVQLVQSGAEVVKPGASVKMSCKASGYTFTGYNIHWVKQAPGQGLEWIGAIYPGNGDTSYKQKFRGRATLTADTSTSTVYMELSSLRSEDSAVYYCARGETARATFAYWGQGTLVTVSS
VL: DIQMTQSPSSLSASVGDRVTITCSASQDIGNFLNWYQQKPGKTVKVLIYYTSSLYSGVPSRFSGSGSGTDYTLTISSLQPEDFATYYCQQYSKLPLTFGQGTKLELKR
notes: XMT-1535 variable regions joined to the rabbit IgG1 constant region and the rabbit Ig kappa-b4 C region; Two lots tested: U0859BH (one-step purification) and U5696BL (two-step purification); also called MER67; chimeric NaPi2b antibody
